B1: N^ε1-[(4S)-4-carboxy-4-[[(4S)-4-carboxy-4-(19-carboxynonadecanoylamino)butanoyl]amino]butanoyl]-[Arg17,Pro21,Pro27,Pro31,Pro34,Arg35]-h-amylin (peptide)
peptide: K([γGlu-γGlu-C20 diacid])CNTATCATQRLANFLRHSSPNFGAIPSSTPVGPRTY-NH2
modifications: disulfide 2-7; N-terminus assumed
SMILES: CC[C@H](C)[C@H](NC(=O)[C@H](C)NC(=O)CNC(=O)[C@H](Cc1ccccc1)NC(=O)[C@H](CC(N)=O)NC(=O)[C@@H]1CCCN1C(=O)[C@H](CO)NC(=O)[C@H](CO)NC(=O)[C@H](Cc1c[nH]cn1)NC(=O)[C@H](CCCNC(=N)N)NC(=O)[C@H](CC(C)C)NC(=O)[C@H](Cc1ccccc1)NC(=O)[C@H](CC(N)=O)NC(=O)[C@H](C)NC(=O)[C@H](CC(C)C)NC(=O)[C@H](CCCNC(=N)N)NC(=O)[C@H](CCC(N)=O)NC(=O)[C@@H](NC(=O)[C@H](C)NC(=O)[C@@H]1CSSC[C@H](NC(=O)[C@@H](N)CCCCNC(=O)CC[C@H](NC(=O)CC[C@H](NC(=O)CCCCCCCCCCCCCCCCCCC(=O)O)C(=O)O)C(=O)O)C(=O)N[C@@H](CC(N)=O)C(=O)N[C@@H]([C@@H](C)O)C(=O)N[C@@H](C)C(=O)N[C@@H]([C@@H](C)O)C(=O)N1)[C@@H](C)O)C(=O)N1CCC[C@H]1C(=O)N[C@@H](CO)C(=O)N[C@@H](CO)C(=O)N[C@H](C(=O)N1CCC[C@H]1C(=O)N[C@H](C(=O)NCC(=O)N1CCC[C@H]1C(=O)N[C@@H](CCCNC(=N)N)C(=O)N[C@H](C(=O)N[C@@H](Cc1ccc(O)cc1)C(N)=O)[C@@H](C)O)C(C)C)[C@@H](C)O
notes: Synthetic acylated analogue of human amylin
B2: N^ε1-[(4S)-4-carboxy-4-[[(4S)-4-carboxy-4-(19-carboxynonadecanoylamino)butanoyl]amino]butanoyl]-[Asp14,Arg17,Pro21,Pro27,Pro34,Arg35]-h-amylin (peptide)
peptide: K([γGlu-γGlu-C20 diacid])CNTATCATQRLADFLRHSSPNFGAIPSSTNVGPRTY-NH2
modifications: disulfide 2-7
notes: Synthetic acylated analogue of human amylin; also called compound 130
B3: N^ε1-[(4S)-4-carboxy-4-[[(4S)-4-carboxy-4-(19-carboxynonadecanoylamino)butanoyl]amino]butanoyl]-[Asp14,Arg17,Pro21,Pro27,Pro34,Glu35]-h-amylin (peptide)
peptide: K([γGlu-γGlu-C20 diacid])CNTATCATQRLADFLRHSSPNFGAIPSSTNVGPETY-NH2
modifications: disulfide 2-7
notes: as for B1
B4: N^ε1-[(4S)-4-carboxy-4-[[(4S)-4-carboxy-4-(19-carboxynonadecanoylamino)butanoyl]amino]butanoyl]-[Glu14,Arg17,Pro21,Pro27,Arg34,Glu35]-h-amylin (peptide)
peptide: K([γGlu-γGlu-C20 diacid])CNTATCATQRLAEFLRHSSPNFGAIPSSTNVGRETY-NH2
modifications: disulfide 2-7; N-terminus assumed
SMILES: CC[C@H](C)[C@H](NC(=O)[C@H](C)NC(=O)CNC(=O)[C@H](Cc1ccccc1)NC(=O)[C@H](CC(N)=O)NC(=O)[C@@H]1CCCN1C(=O)[C@H](CO)NC(=O)[C@H](CO)NC(=O)[C@H](Cc1c[nH]cn1)NC(=O)[C@H](CCCNC(=N)N)NC(=O)[C@H](CC(C)C)NC(=O)[C@H](Cc1ccccc1)NC(=O)[C@H](CCC(=O)O)NC(=O)[C@H](C)NC(=O)[C@H](CC(C)C)NC(=O)[C@H](CCCNC(=N)N)NC(=O)[C@H](CCC(N)=O)NC(=O)[C@@H](NC(=O)[C@H](C)NC(=O)[C@@H]1CSSC[C@H](NC(=O)[C@@H](N)CCCCNC(=O)CC[C@H](NC(=O)CC[C@H](NC(=O)CCCCCCCCCCCCCCCCCCC(=O)O)C(=O)O)C(=O)O)C(=O)N[C@@H](CC(N)=O)C(=O)N[C@@H]([C@@H](C)O)C(=O)N[C@@H](C)C(=O)N[C@@H]([C@@H](C)O)C(=O)N1)[C@@H](C)O)C(=O)N1CCC[C@H]1C(=O)N[C@@H](CO)C(=O)N[C@@H](CO)C(=O)N[C@H](C(=O)N[C@@H](CC(N)=O)C(=O)N[C@H](C(=O)NCC(=O)N[C@@H](CCCNC(=N)N)C(=O)N[C@@H](CCC(=O)O)C(=O)N[C@H](C(=O)N[C@@H](Cc1ccc(O)cc1)C(N)=O)[C@@H](C)O)C(C)C)[C@@H](C)O
notes: as for B1

Numbered stars: 1 amine (or outer) side, 2 acyl side, 3 side chain; on linkers, the order of the positions; unused ones are H or OH. Bridge positions count the residues as written; N and C are the ends. Side chains are listed from the residue outwards. Ends that are not written are not given here. * marks the point of attachment. C20 diacid = O=C(O)CCCCCCCCCCCCCCCCCCC(=O)*; γGlu = O=C(O)[C@H](CCC(=O)[*:2])N[*:1]

The target in one assay is T1, rat calcitonin receptor (rat, UniProt P32214 25-516).
T1 construct: whole, on cells; Membranes of transiently transfected BHK tk'ts 13 cells; also called rCTR; rat calcitonin (a) receptor
T1 sequence (looked up): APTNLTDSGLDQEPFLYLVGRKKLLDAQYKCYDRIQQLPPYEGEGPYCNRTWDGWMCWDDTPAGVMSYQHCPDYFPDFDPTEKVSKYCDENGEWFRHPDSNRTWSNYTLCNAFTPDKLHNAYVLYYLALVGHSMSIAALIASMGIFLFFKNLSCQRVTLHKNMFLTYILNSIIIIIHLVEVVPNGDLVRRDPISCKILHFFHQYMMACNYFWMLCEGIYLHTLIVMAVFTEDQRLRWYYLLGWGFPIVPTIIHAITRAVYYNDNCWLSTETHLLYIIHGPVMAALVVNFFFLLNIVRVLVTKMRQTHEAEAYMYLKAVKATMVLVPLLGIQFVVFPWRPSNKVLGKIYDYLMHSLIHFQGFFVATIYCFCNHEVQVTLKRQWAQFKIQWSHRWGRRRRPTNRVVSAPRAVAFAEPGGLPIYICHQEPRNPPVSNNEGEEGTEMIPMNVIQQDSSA
Description: ratio of IC50 on rat calcitonin receptor to IC50 on rat amylin receptor (reference m40).
B1: the “Ratio rCT/rAmylin binding” value is 137.

Turning to B2, the “Ratio rCT/rAmylin binding” value was found to be 240.

For B3, the “Ratio rCT/rAmylin binding” value was 98.5.

On to B4, for which the “Ratio rCT/rAmylin binding” value came to 158.

The next assay addresses T2, human calcitonin receptor (human, UniProt P30988 25-474).
T2 construct: whole, on cells; Membranes of stably transfected cells; also called hCTR; hCT
T2 sequence (looked up): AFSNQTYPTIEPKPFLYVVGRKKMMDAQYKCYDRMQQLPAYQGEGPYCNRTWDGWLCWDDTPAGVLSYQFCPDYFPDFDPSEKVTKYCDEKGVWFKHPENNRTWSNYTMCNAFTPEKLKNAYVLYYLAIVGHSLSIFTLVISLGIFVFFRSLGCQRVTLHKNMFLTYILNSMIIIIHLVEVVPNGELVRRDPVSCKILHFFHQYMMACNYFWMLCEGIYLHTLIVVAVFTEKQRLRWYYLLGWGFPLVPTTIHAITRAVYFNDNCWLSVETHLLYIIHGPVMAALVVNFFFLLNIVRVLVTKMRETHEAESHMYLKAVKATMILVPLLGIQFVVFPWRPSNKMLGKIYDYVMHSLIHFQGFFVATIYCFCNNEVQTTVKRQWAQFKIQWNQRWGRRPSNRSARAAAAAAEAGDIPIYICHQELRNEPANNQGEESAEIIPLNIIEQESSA
Description: ratio of IC50 on human calcitonin receptor to IC50 on human amylin receptor (reference m42), SPA competition. In a few lines:
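Competition binding by SPA with cell membranes (35 ng/μL) and SPA beads in 50 mM Hepes pH 7.4 with 1 mM CaCl2, 5 mM MgCl2, 0.1% OA and 0.02% Tween20. Incubated 120 min at 25 °C with shaking, then counted.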
Turning to B1, the “Ratio hCT/hAmylin binding” value is 48.6.

With B2, the “Ratio hCT/hAmylin binding” value turned out to be 280.

For the molecule B3, the “Ratio hCT/hAmylin binding” value was determined as 49.8.

Turning to B4, the “Ratio hCT/hAmylin binding” value stood at 14.7.

The next assay concerns the target T1, rat calcitonin receptor. Description: SPA competition with 125I-calcitonin on membranes of BHK tk'ts 13 cells with rat calcitonin receptor (Assay VIII).
Usually IC50 stands for the concentration that gives 50% inhibition. For B1, the IC50 stood at 52.4 nM.

Turning to B2, the IC50 is 223 nM.

B3: the IC50 stood at 31.9 nM.

Consider B4, for which the IC50 was determined as 452 nM.

For a further assay, the target named is T3, rat amylin receptor (rat calcitonin receptor + rat RAMP 3) (rat, UniProt P32214 25-516; Q9JJ73 23-147).
T3 construct: whole, on cells; Membranes of transiently transfected BHK tk'ts 13 cells; also called rAmylin-R; rat amylin 3(a) receptor
T3 sequence (looked up) 1: T1 sequence (looked up)
T3 sequence (looked up) 2: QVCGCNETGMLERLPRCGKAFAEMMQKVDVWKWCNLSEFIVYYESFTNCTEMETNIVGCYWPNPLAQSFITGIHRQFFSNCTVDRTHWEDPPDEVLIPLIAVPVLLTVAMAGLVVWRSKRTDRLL
Description: SPA competition with 125I-rat amylin on membranes of BHK tk'ts 13 cells with rat calcitonin receptor + rat RAMP3 (Assay VI).
Turning to B1, the IC50 was found to be 0.381 nM.

B2: the IC50 was 0.93 nM.

In the case of B3, the IC50 came out at 0.324 nM.

With B4, the half-maximal inhibitory concentration (IC50) was found to be 2.86 nM.
